Experimental findings from patent US20260258115A1 (MAPP BIOPHARMACEUTICAL, published 2026) are described below.

Assay [1] deals with T1, RSV postfusion F (postF), subtype A (respiratory syncytial virus subtype A, UniProt P03420 26-513).
T1 construct: also called Postfusion subtype A; F deltaFP
Nature of the assay: BLI. On the technique in general: BLI is a label-free optical method that tracks binding on a fibre tip over time.

Assay [2] has as its target T2, RSV prefusion F (preF), subtype B (respiratory syncytial virus subtype B).
T2 construct: also called Prefusion subtype B
Nature of the assay: BLI, IgG.

For assay [3], the target named is RSV F on RSV subtype A virus (mKate-RSV A2) (respiratory syncytial virus A2, UniProt P03420 26-574). Nature of the assay: cell-based or functional assay.
Assay [4] deals with RSV F on RSV subtype B virus (mKate-RSV B 18537) (respiratory syncytial virus B 18537, UniProt P13843 26-574). Nature of the assay: cell-based or functional assay.
A further assay has as its target RSV F on RSV-A2 virus (Respiratory Syncytial Virus (RSV-A2), UniProt P03420 26-574). Nature of the assay: cell-based or functional assay.
In assay [5] the target is RSV postfusion F (postF), F ΔFP (Respiratory Syncytial Virus, UniProt P03420 26-513). Nature of the assay: BLI, IgG on anti-human IgG sensor, 100 nM antigen, 1:1 fit.

B1: ADI-14364 (antibody, V domains shown)
VH: QVQLVQSGAEVKKPGESLKISCKGSGYSFTSHWIGWVRQMPGKGLEWMGITDPGDSDTRYSPSFQGQVTISADKSISTAYLQWSSLKASDTAMYYCAREPRRWMTTETNGPYYFDNWGQGTLVTVSS
VL: SYVLTQPPSVSVAPGKTARITCGGNNIGSKSVHWYQQKPGQAPVLVIYYDSDRPSGIPERFSGSNSGNTATLTISRVEAGDEADYYCQVWDSSSDNRVFGGGTKVTVL
notes: full-length IgG; also called Ab 32
One may read the Kd as a measure of binding affinity in units of concentration. A lower Kd goes with higher affinity. On to B1, for which the binding result in assay [1] is on record as “no binding”. The molecule also yielded a Kd in assay [2] of 61.6 nM. Further, in assay [3], the “Neut IC50 subtype A” value was 0.03 µg/mL. Further, the “Neut IC50 subtype B” value in assay [4] came to 2.39 µg/mL.

B2: ADI-19424 (antibody, V domains shown)
VH: EVQLLESGGGLVQPGGSLRLSCAASGFTVSSNYMSWVRQAPGKGLEWVSDIYSGGRTDYADSVKGRFTISRDNSKNTLDLQMNSLRAEDTAVYYCARETLGMDHWYFDLWGRGTLVTVSS
VL: QPGLTQPPSVSVAPGKTARITCGGNNIGSKSVHWYQQKPGQAPVLVVYDDSDRPSGIPERFSGSNSGNTATLTISRVEAGDEADYYCQVWDSTSDHPVFGGGTKLTVL
notes: full-length IgG
Take B2: the binding result in assay [1] is on record as “no binding”. In addition, the Kd in assay [2] was found to be 1.71 nM. In addition, in assay [3], the “Neut IC50 subtype A” value worked out at 0.08 µg/mL. Also, the “Neut IC50 subtype B” value in assay [4] amounted to 0.21 µg/mL.

B3: ADI-19422 (antibody, V domains shown)
VH: not shown
VL: QPVLTQPPSVSVAPGKTARITCGGNNIGSKSVHWYQQKPGQAPVLVVYDDSDRPSGIPERFSGSNSGNTATLTISRVEAGDEADYYCQVWDSSSDHWVFGGGTKLTVL
notes: full-length IgG
For the molecule B3, in assay [1], the binding result was “no binding”. For the same molecule, the Kd in assay [2] was 10.8 nM. Moreover, the “Neut IC50 subtype A” value in assay [3] turned out to be 0.73 µg/mL. Moreover, the “Neut IC50 subtype B” value in assay [4] came to 1.9 µg/mL.

B4: ADI-25567 (antibody, V domains shown)
VH: QVQLQQWGAGLLKPSETLSLTCAVYGGSFSGYYWSWIRQPPGKGLEWIGEINHSGSTNYNPSLKSRVTISVDTSKNQFSLKLSSVTAADTAVYYCARGLPRFGVVTPNWFDPWGQGTLVTVSS
VL: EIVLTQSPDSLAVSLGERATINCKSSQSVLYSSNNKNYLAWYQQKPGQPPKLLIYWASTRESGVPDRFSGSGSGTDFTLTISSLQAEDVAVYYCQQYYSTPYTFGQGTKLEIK
notes: full-length IgG
As for B4, in assay [1], the binding result is “no binding”. The dissociation constant (Kd) in assay [2] came to 3.83 nM. Further, in assay [3], the “Neut IC50 subtype A” value was 0.33 µg/mL. Also, the “Neut IC50 subtype B” value in assay [4] is 1.94 µg/mL.

B5: ADI-14346 (antibody, V domains shown)
VH: EVQLLESGGGLVKPGGSLRLSCAASGFRFSSYSMNWVRQAPGKWLEWVSSISASSSYTDYADSVKGRFTISRDNAKNSLYLQMNSLRAEDTAVYYCAREDYLSSGSLLHWFDPWGQGTLVTVSS
VL: QPVLTQPPSVSGAPGQRVTISCTGSSSNIGAGYDVHWYQQLPGTAPKLLIYGNNNRPSGVPDRFSGSKSGTSASLAITGLQAEDEADYYCQSYDSRLSVLFGGGTKVTVL
notes: full-length IgG; also called Ab 14
For B5, in assay [1], the binding result was “no binding”. The molecule further came in with a Kd in assay [2] of 0.925 nM. The “Neut IC50 subtype A” value in assay [3] stood at 0.05 µg/mL. Also, the “Neut IC50 subtype B” value in assay [4] was determined as 0.07 µg/mL.

B6: ADI-41550 (antibody, V domains shown)
VH: QVQLVQSGAEVKMPGASVRVSCKASGYTLGSHGITWVRQAPGQGLEWMGWISANNFNTHYAQKFQGRVTMTTDTSTSTAYMELRSLRSDDTAVYYCAREVMGHMVETISFDYWGQGTLVTVSS
VL: QPVLTQPPSVSVAPGQTARITCGGNNIGSESVHWYQQKPGQAPVLVVHDDSDRPSGIPERFSGSNSGNTATLTISRVEAGDEADYYCQVWDFTPDHPVFGGGTKVTVL
B6: in the assay with RSV F on RSV-A2 virus, the “Neutralization IC50 (RSV subtype A)” value was over 25 µg/mL. The molecule further displayed a Kd in assay [5] of 25.7 nM.

B7: ADI-14357 (antibody, V domains shown)
VH: EVQLVESGGGVVQPGRSLRLSCAASGFTFSNYAMHWVRQAPGKGLEWVSIISYDGSNKYYADSVKGRFTISRDNSKNTLYLQINSLRTEDTAVYYCARARKRIPIVVVTAPYYYGMDVWGQGTTVTVSS
VL: DIRVTQSPSSLSASVGDRVTITCRASQSISSYLHWYQQQPGKAPNLLIYAASNLQSGVPSRFSGSGSGTDFTLTISSLQPEDFATYYCQQSYTTPHTFGQGTKVEIK
notes: full-length IgG; also called Ab 25
Consider B7, for which the binding result in assay [1] was “no binding”. Further, binding in assay [2] was put at a Kd of 0.306 nM. Also, the “Neut IC50 subtype A” value in assay [3] came out at 1.24 µg/mL. Further, the “Neut IC50 subtype B” value in assay [4] turned out to be 0.88 µg/mL.

B8: ADI-25562 (antibody, V domains shown)
VH: QVQLVESGGGLVKPGGSLRLSCAASGFTFSDYYMSWIRQAPGKGLEWVSYISSSSSYTNYADSVKGRFTISRDNAKNSLYLQMNSLRAEDTAVYYCARVGYSSSWYNYFDYWGQGTLVTVSS
VL: SYVLTQPPSVSGAPGQRVTISCTGSSSNIGAGYDVHWYQQLPGTAPKLLIYGNSNRPSGVPDRFSGSKSGTSASLAITGLQAEDEADYYCQSYDSSLSGPVFGGGTKLTVL
notes: full-length IgG; also called Ab 453
Turning to B8, the binding result in assay [1] is “no binding”. This molecule had a Kd in assay [2] of 3.32 nM. In assay [3], the “Neut IC50 subtype A” value worked out at 1.18 µg/mL. Also, the “Neut IC50 subtype B” value in assay [4] was found to be 1.14 µg/mL.

B9: ADI-19420 (antibody, V domains shown)
VH: EVQLLESGGGLVKPGGSLRLSCAASGFTFSSYSMNWVRQAPGKGLEWVSSISSSSSYIYYADSVKGRFTISRDNAKNSLYLQMNSLRAEDTAVYYCARVGWGYSYGYWFDPWGQGTLVTVSS
VL: QSVLTQPPSVSGAPGQRVTISCTGSSSNIGAGYDVHWYQQLPGTAPKLLIYGNSNRPSGVPDRFSGSKSGTSASLAITGLQAEDEADYYCQSYDSSLSGVVFGGGTKLTVL
notes: full-length IgG
In the case of B9, the binding result in assay [1] is given as “no binding”. The dissociation constant (Kd) in assay [2] came out at 2.47 nM. Besides, the “Neut IC50 subtype A” value in assay [3] was determined as 0.55 µg/mL. Also, the “Neut IC50 subtype B” value in assay [4] came out at 0.64 µg/mL.

B10: ADI-14345 (antibody, V domains shown)
VH: QITLKESGAEVKKPGASVKVSCKVSGYTLSDFSMHWVRQAPGKGLEWMGSFDPEDGETVDAQKFQGRVTMTEDRSTATAYMELRSLRSEDTAVYYCGTPASAGQVDYWGQGTLVTVSS
VL: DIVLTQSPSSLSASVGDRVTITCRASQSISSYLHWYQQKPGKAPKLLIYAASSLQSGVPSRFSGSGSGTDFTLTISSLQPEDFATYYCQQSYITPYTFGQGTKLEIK
notes: full-length IgG; also called Ab 13
B10: the binding result in assay [1] is “no binding”. This molecule also gave a Kd in assay [2] of 5.26 nM. The “Neut IC50 subtype A” value in assay [3] was 2.3 µg/mL. Moreover, the “Neut IC50 subtype B” value in assay [4] was 0.87 µg/mL.

B11: ADI-14347 (antibody, V domains shown)
VH: EVQLVESGGGLVKPGGSLRLSCAASGFTFRDYYMNWIRQAPGKGLEWVSDISASSSYTNYADSVKGRFTISRDNAKTSLYLQMNSLRAEDTAVYYCAREVVTAMGGYYFDYWGQGTLVTVSS
VL: QSVVTQPPSVSGAPGQRVTISCTGSSSNIGAGYDVHWYQQLPGTAPKLLIYGNNNRPSGVPDRFSGSKSGTSASLAITGLQAEDEADYYCQSYDSSLSGSGVFGTGTKVTVL
notes: full-length IgG; also called Ab 15
Turning to B11, in assay [1], the binding result is recorded as “no binding”. The same molecule showed a Kd in assay [2] of 2.54 nM. Further, the “Neut IC50 subtype A” value in assay [3] is 0.11 µg/mL. In addition, the “Neut IC50 subtype B” value in assay [4] turned out to be 0.05 µg/mL.

B12: ADI-25549 (antibody, V domains shown)
VH: QVQLVQSGGGLVKPGGSLRLSCAASGFTFSSYSMNWVRQAPGKGLEWVSSISSSSSYIYYADSVKGRFTISRDNAKNSLYLQMNSLRAEDTAVYYCARVSSGWYGGGAYYFDYWGQGTLVTVSS
VL: QSVVTQPPSVSGAPGQRVTISCTGSSSNIGAGYDVHWYQQLPGTAPKLLIYGNSNRPSGVPDRFSGSKSGTSASLAITGLQAEDEADYYCQSYDSSLSALYVFGTGTKVTVL
notes: full-length IgG
As to B12, the binding result in assay [1] was “no binding”. This molecule also displayed a Kd in assay [2] of 28.8 nM. Further, the “Neut IC50 subtype A” value in assay [3] was determined as 11.5 µg/mL. Also, the “Neut IC50 subtype B” value in assay [4] was 6.02 µg/mL.

B13: ADI-19425 (antibody, V domains shown)
VH: EVQLVESGGGLVKPGGSLRLSCAASGFTFSSYSMNWVRQAPGKGLEWVSSISSSSSYIYYADSVKGRFTISRDNAKNSLYLQMNSLRAEDTAVYYCARLGYCSGGSCHFDYWGQGTLVTVSS
VL: QPVLTQPPSVSGAPGQRVTISCTGSSSNIGAGYDVHWYQQLPGTAPKLLIYGNSNRPSGVPDRFSGSKSGTSASLAITGLQAEDEADYYCQSYDSSLSGFYVFGTGTKLTVL
notes: full-length IgG; also called Ab 140
Take B13: in assay [1], the binding result is on record as “no binding”. The same molecule had a Kd in assay [2] of 1.37 nM. For the same molecule, the “Neut IC50 subtype A” value in assay [3] was found to be 0.02 µg/mL. Moreover, the “Neut IC50 subtype B” value in assay [4] turned out to be 0.04 µg/mL.

B14: ADI-19421 (antibody, V domains shown)
VH: EVQLLESGGGVVQPGRSLRLSCAASGFTFSSYGMHWVRQAPGKGLEWVAVISYDGSNKYYADSVKGRFTISRDNSKNTLYLQMNSLRAEDTAVYYCAKDIHHVLRFLDPDYWGQGTLVTVSS
VL: QSVLIQPASVSGFPGQSITISCTGTSSDVGGYNYVSWYQQHPGKAPKLMIYEVSNRPSGVSNRFSGSKSGNTASLTISGLQAEDEADYYCSSYTSSSTLVFGGGTKLTVL
notes: full-length IgG
For B14, the binding result in assay [1] was “no binding”. The same molecule had a dissociation constant (Kd) in assay [2] of 5.42 nM. The “Neut IC50 subtype A” value in assay [3] was 10 µg/mL. Further, in assay [4], the “Neut IC50 subtype B” value is 3.3 µg/mL.

B15: ADI-14367 (antibody, V domains shown)
VH: EVQLLESGGGLVQPGGSLRLSCAASGFTFGSYDMNWVRQAPGKGLEWVSGISGSGDATYYADSVKGRFTISRDNSKNMLYLQMNSLSAEDMAVYYCARDRAFTMKYNSNWYKIYWGQGTMVTVSS
VL: EIVLTQSPGTLSLSPGERATLSCRASQSVTSSYLAWYQQKPGQAPRLLIYGAFSRATGIPDRFSGSGSGTDFTLTISRLEPEDFAVYYCHHYGTSRWTFGQGTKVDIK
notes: full-length IgG; also called Ab 35
In the case of B15, the binding result in assay [1] is on record as “no binding”. Also, in assay [2], the affinity, expressed as Kd, was 0.269 nM. The “Neut IC50 subtype A” value in assay [3] was 3.94 µg/mL. Also, the “Neut IC50 subtype B” value in assay [4] is 0.33 µg/mL.

B16: ADI-25555 (antibody, V domains shown)
VH: QVQLVQSGGGLVKPGGSLRLSCAASGFTFSSYSMNWVRQAPGKGLEWVSSISSSSSYIYYADSVKGRFTISRDNAKNSLYLQMNSLRAEDTAVYYCARQRGGIAVAGTYFDLWGRGTLVTVSS
VL: QPVLTQPPSVSGAPGQRVTISCTGSSSNIGAGYDVHWYQQLPGTAPKLLIYGNSNRPSGVPDRFSGSKSGTSASLAITGLQAEDEADYYCQSYDSTVVFGGGTKLTVL
notes: full-length IgG
As to B16, in assay [1], the binding result was “no binding”. The Kd in assay [2] was determined as 44.7 nM. Besides, the “Neut IC50 subtype A” value in assay [3] turned out to be 18.6 µg/mL. In addition, in assay [4], the “Neut IC50 subtype B” value was determined as 12.1 µg/mL.
